Assay results taken from patent publication US20120058906A1 (published 2012).

What was measured:
[1] = target: T1, rHuman CD44/Fc Chimera, CF (R&D Systems Cat#3660-CD) (human, UniProt P16070 21-220); experiment: ECL (MSD Multi-Spot) binding, antigen spotted on plate; Fab 10 nM
T1 construct: Bought Fc chimera; Fc part of the bought chimera not given

[2] = target: T2, rHuman IGF-1 sR, CF (R&D Systems Cat#391-GR) (human, UniProt P08069 31-932); experiment: as above
T2 construct: Bought soluble receptor; also called insulin-like growth factor-1 soluble receptor; IGF-R1

[3] = target: T3, rHuman P-Cadherin/Fc Chimera, CF (R&D Systems Cat#861-PC) (human, UniProt P22223 108-654); experiment: as above
T3 construct: Bought Fc chimera; Fc part of the bought chimera not given

[4] = target: T4, rHuman Erythropoietin R/Fc Chimera, CF (R&D Systems Cat#963-ER) (human, UniProt P19235 25-250); experiment: as above
T4 construct: Bought Fc chimera; also called EPO R/Fc; erythropoietin receptor; Fc part of the bought chimera not given
T4 sequence: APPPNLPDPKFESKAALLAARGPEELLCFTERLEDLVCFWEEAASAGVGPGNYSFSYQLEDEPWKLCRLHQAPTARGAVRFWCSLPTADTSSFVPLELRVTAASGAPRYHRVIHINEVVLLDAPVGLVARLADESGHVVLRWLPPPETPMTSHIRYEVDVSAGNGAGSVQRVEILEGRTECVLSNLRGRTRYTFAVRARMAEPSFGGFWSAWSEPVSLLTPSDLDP

[5] = target: T5, Recombinant Human DLL4 (R&D Systems Cat#1506-D4/CF) (human, UniProt Q9NR61 27-524); experiment: as above
T5 construct: Bought recombinant protein; also called delta-like protein 4

[6] = target: T6, rHuman ErbB2/Fc Chimera, CF (R&D Systems Cat#1129-ER) (human, UniProt P04626 23-652); experiment: as above
T6 construct: Bought Fc chimera; also called human epidermal growth factor 2 receptor; HER2/neu; Fc part of the bought chimera not given

[7] = target: T7, rHuman EGF R/Fc Chimera, CF (R&D Systems Cat#344-ER) (human, UniProt P00533 25-645); experiment: as above
T7 construct: Bought Fc chimera; also called epidermal growth factor receptor; Fc part of the bought chimera not given

[8] = target: T8, rHuman HGF R/c-MET/Fc Chimera, CF (R&D Systems Cat#358-MT/CF) (human, UniProt P08581 25-932); experiment: as above
T8 construct: Bought Fc chimera; also called HGF R/Fc; hepatocyte growth factor receptor; Fc part of the bought chimera not given

[9] = target: T9, rHuman Notch-1/Fc Chimera, CF (R&D Systems Cat#3647-TK) (human, UniProt P46531 19-526); experiment: as above
T9 construct: Bought Fc chimera; Fc part of the bought chimera not given

[10] = target: T1, rHuman CD44/Fc Chimera, CF (R&D Systems …); experiment: ECL (MSD Multi-Spot) binding, antigen spotted on plate; Fab 1000 nM
[11] = target: T2, rHuman IGF-1 sR, CF (R&D Systems …); experiment: as above
[12] = target: T3, rHuman P-Cadherin/Fc Chimera, CF (R&D …); experiment: as above
[13] = target: T4, rHuman Erythropoietin R/Fc Chimera, CF …; experiment: as above
[14] = target: T5, Recombinant Human DLL4 (R&D Systems …); experiment: as above
[15] = target: T6, rHuman ErbB2/Fc Chimera, CF (R&D …); experiment: as above
[16] = target: T7, rHuman EGF R/Fc Chimera, CF (R&D …); experiment: as above
[17] = target: T8, rHuman HGF R/c-MET/Fc Chimera, CF (R&D …); experiment: as above
[18] = target: T9, rHuman Notch-1/Fc Chimera, CF (R&D …); experiment: as above
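Further: blank spot per well as comparator with Hit at signal to blank ratio of 4 or more.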

B1: Fab VH1-46_IGHD6-6*01_IGHJ1*01_S102A_S103P_S104F & L6_IGKJ1*01 (Fab, V domains shown)
VH: QVQLVQSGAEVKKPGASVKVSCKASGYTFTSYYMHWVRQAPGQGLEWMGIINPSGGSTSYAQKFQGRVTMTRDTSTSTVYMELSSLRSEDTAVYYCAREEYAPFSAEYFQHWGQGTLVTVSS
VL: not shown
notes: Fab made in E. coli; The heavy chain also carries the CH1 with Flag and His tags of Plasmid A, and the light chain the kappa constant region of Plasmid C
With B1 as the binder, how does the ECL signal [1] read?
Its ECL signal is 887.

What about the ECL signal [2] of the same binder?
The ECL signal was 720.

And the ECL signal [3]?
The ECL signal was 894.

What about the ECL signal [4] of the same binder?
Its ECL signal is 1110.

What about the ECL signal [5] of the same binder?
The ECL signal was 345000.

And the ECL signal [6]?
The ECL signal was 842.

What about the ECL signal [7] of the same binder?
Its ECL signal is 809.

And the ECL signal [8]?
Its ECL signal is 691.

And the ECL signal [9]?
Its ECL signal is 1140.

And the ECL signal [10]?
The ECL signal was 1310.

What about the ECL signal [11] of the same binder?
Its ECL signal is 1180.

What about the ECL signal [12] of the same binder?
Its ECL signal is 2500.

What about the ECL signal [13] of the same binder?
Its ECL signal is 1660.

And the ECL signal [14]?
The ECL signal was 73300.

And the ECL signal [15]?
The ECL signal was 1290.

What about the ECL signal [16] of the same binder?
The ECL signal was 2430.

And the ECL signal [17]?
Its ECL signal is 1580.

And the ECL signal [18]?
Its ECL signal is 1620.
